According to US20100120678A1 (University of California, published 2010):

Target: His-tagged wildtype EGFR kinase domain (human, UniProt P00533 696-1022, limits assumed)
Experiment: cell-based or functional assay

SYLNGVMPPTQSFAPDPKYVSSKAL [25-mer peptide corresponding to residues 340-364 in Mig-6]
inhibition of activated EGFR kinase (IC50): ~100 µM
